Measurements as given in PMC7054686, “A revised model of TRAIL‐R2 DISC assembly explains how FLIP(L) can inhibit or promote apoptosis” (EMBO Reports, 2020).

Molecular target: recombinant FLIP DED1/2 (amino acids 1–184) with a C‐terminal His‐tag (UniProt O15519 1-184)
Test: AlphaScreen or HTRF; cell-free AlphaScreen: FLIP DED1/2-His on nickel chelate acceptor beads, GST-FADD DED on glutathione donor beads; 25 mM Tris pH 7.5, 300 mM NaCl, 0.0007% Tween-20, 0.05% BSA; room temperature; 25 μl in 384-well plate
Details: both partners purified

B1: recombinant FADD DED (amino acids 1–90) with an N‐terminal GST‐tag (domain or fragment)
chain: MDPFLVLLHSVSSSLSSSELTELKFLCLGRVGKRKLERVQSGLDLFSMLLEQNDLEPGHTELLRELLASLRRHDLLRRVDDFEAGAAAGA
notes: FADD, death effector domain, amino acids 1-90; Held by glutathione donor beads in the AlphaScreen; source: recombinant; not shown: GST, N-terminal, kept
  binding result: binds
